According to article PMC9253517 (The Journal of Experimental Medicine, 2022):

B1: JN103 (antibody, V domains shown)
VH: EVQLVKSGGGLIQPGGSLRLSCAASGFTVSSNYMSWVRQAPGKGLEWVSVIYSGGSTYYADSVKGRFTISRDNSKNTLYLQMNSLRAEDTAVYYCARDLYSSGGTDIWGQGTMVTVSS
VL: QTVVTQEPSFSVSPGGTVTLTCGLTSGSVSTSHYPSWYQQTPGQAPRTLIDSTNIRSFGVPDRFSGSILGNKAALTITGAQADDEADYYCILYVGNGIWMFGGGTRLTVL
B2: JN110 (antibody, V domains shown)
VH: QVQLVQSGAEVKKPGSSVKVSCKASGGTFSSYAISWVRQAPGQGLEWMGGIIPIFGTANYAQKFQGRVTITADKSTSTAYMELSSLRSEDTAVYYCARDPAFYYDILTGYGGYYYYGMDVWGQGTTVTVSS
VL: DIVMTQTPLSLSVTPGQPASISCKSSQSLLHSDGKTYLYWYLQKPGQPPQLLIYEVSNRFSGVPDRFSGSGSGTDFTLKISRVEAEDVGVYYCMQSIQLPPTFGQGTKVEIK
B3: JN104 (antibody, V domains shown)
VH: QVQLQESGPGLVKPSGTLSLTCAVSGGSISSNKWWSWVRQPPGKGLEWIGEIYHSGSTNYNPSLKSRVTISVDKSKNQFSLKLSSVTAADTAVYYCAILRYGSGSSLPPDNWGQGTLVTVSS
VL: EIVMTQSPATLSVSPGERATLSCRASQIISNNLAWHQQKPGQAPRLLIYGASTRATGIPARFSGSGSGTEFTLTISSLQSEDFAVYYCQQYNNWPPLLTFGGGTKVEIK
B4: JN008 (antibody, V domains shown)
VH: EVQLVESGGDLIQPGGSLRLSCAASGFTVSSNYMNWVRQAPGKGLEWVSIIYSGGSTFYADSVKGRFTISRDNSKNTLYLQMNSLRVEDTATYFCARSYGDYYFDSWGQGTLVTVSS
VL: EIVLTQSPATLSLSPGERATLSCRASQSVSSYLAWYQQKPGQAPRLLIYDASNRATGIPARFSGSGSGTDFTLTISSLEPEDFAVYYCQQRSNWPPSFTFGPGTKVDIK
B5: JN218 (antibody, V domains shown)
VH: EVQLVESGGGLVKPGGSLRLSCAASGFTFSSYTMNWVRQAPGKGLEWVSSISTGSSNIYYTDSVKGRFTISRDNARNSLSLQMNSLRAEDTAVYYCAREGRFIGTGYWSDFSYALDVWGQGTTVTVSS
VL: EIVLTQSPGTLSLSPGERATLSCRASQSVSSSSLAWYQQTPGQAPRLLIYGASSRATGIPDRFSGSGSGTDFTLTISRLEPEDFAVYYCQQYGSSVGAFGQGTKLEIK
B6: JR340 (antibody, V domains shown)
VH: EVQLVESGGGLVQPGRSLRLSCTASGFTFHDYALQWVRQVPGKGLEWVSGISWNSASTGYADSVKGRFTISRDNAKNSLYLQMNSLRAEDTALYYCAKVRSTSCYLACGMDVWGQGTTVTVSS
VL: QSALTQPASVSGSPGQSITISCTGTSSDVGSYNLVSWYQQHPGKAPKLMISEVSKRPSGVSNRFSGSKSGNTASLTISGLQAEDEADYYCCSYALSRILFGGGTKLTVL
B7: JR325 (antibody, V domains shown)
VH: QVQLQESGPGLVKPSQTLSLTCTVSGGSISSSDYYWSWIRQHPGKGLEWIGFIFYSGTTYYSPALKSRVSISVDTSKSQFSLKLHSVTAADTAVYYCARFSRNLGLNWFDPWGQGTLVTVSS
VL: QFVLTQPASVSGSPGQSITISCTGTSSDIGSYDLVSWYQQYPGKAPKLIIYEVNKRPSGVSSRFSGSKSGNTASLTISGLLAEDEADYYCCSYAGPNTVLFGGGTILTV
B8: JN109 (antibody, V domains shown)
VH: QVQLVESGGGVVQPGRSLRLSCAASGFTFSSYGMHWVRQAPGKGLEWVAVIWYDGSNKYYADSVKGRFTISRDNSKNTLYLQMNSLRAEDTAVYYCARVRTIFRPLDYMDVWGKGTTVTVSS
VL: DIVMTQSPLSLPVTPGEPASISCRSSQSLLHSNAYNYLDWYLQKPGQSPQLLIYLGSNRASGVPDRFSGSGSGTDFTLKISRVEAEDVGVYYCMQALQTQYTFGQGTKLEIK
B9: JN013 (antibody, V domains shown)
VH: QLQLQESGPGLVKPSETLSLTCTVSGGSISSSSYYWGWIRQPPGKGLEWIGSIYYSGSTYYNPSLKSRVTISVDTSKKQFSLKLSSVTAADTAVYYCARTYYDYIWGSLLGDFWGQGTLVTVSS
VL: QSALTQPRSVSGSPGQSVTISCTGTSSDVGGYNYVSWYQQHPGKAPKLMIYDVSKRPSGVPDRFSGSKSGNTASLTISGLQAEDEADYYCCSYAGSYWVFGGGTKLTVL
B10: JN017 (antibody, V domains shown)
VH: EVQLVESGGGLVQPGGSLRLSCAASGFTFTNHWMTWVRQAPGRGLEWVANIEGDGSDKYYVDSVKGRFTISRDNAKYSLYLHMNSLRGEDTAVYYCARHSGTYHGLDYWGQGTLVTVSS
VL: QSALTQPRSVSGSPGQSVTISCTGTSSDVGGYNYVSWYQEHPGKAPKLMIYDVSKRPSGVPDRFSSSKSGNTASLTISGLQAEDEADYYCYAFAGTTWMFGGGTKLTVL
B11: JN117 (antibody, V domains shown)
VH: QVQLVQSGAEVKKPGASVKVSCKASGYTFTSYDINWVRQATGQGLEWMGWMNPNSGNTGYAQKFQGRVTMTRNTSISTAYMELSSLRSEDTAVYYCALGTTPWYYFDYWGQGTLVTVSS
VL: SYELTQPPSVSVSPGQTARITCSGDALPKQYAYWYQQKPGQAPVLVIYKDSERPSGIPERFSGSSSGTTVTLTISGVQAEDEADYYCQSADSSGTYVFGTGTKVTVL
B12: JN115 (antibody, V domains shown)
VH: QVQLVQSGAEVRKPGASVKVSCKVSGYTLIDLSIHWVRQAPGKGLEWMGGFDPEDGETIYAQKFQGRVTMTEDTSTDTAYMELSSLRSEDTAVYYCATSSSIVISGWFDPWGQGTLVTVSS
VL: QSALTQPASVSGSPGQSITISCTGTSSDVSGYNYVSWYQQHPGKVPKLLIYDVSNRPSGVSNRFSGSKSGNTASLTISGLQAEDEADYYCSSYTSSSTLVYVFGTGTKVTVL
B13: JN007 (antibody, V domains shown)
VH: EVQLVESGGGLIQPGGSLRLSCAASGFTVSSNYMSWVRQAPGKGLEWVSVIYTGGSTYYADSVKGRFTISRDNSNNSLYLRMNSLRAEDTAVYYCARGPYYDFRSGYSPGWFDPWGQGTLVTVSS
VL: not shown
B14: JN010 (antibody, V domains shown)
VH: EVQLVESGGDLIQPGGSLKLSCAASGVTVSSNYMTWVRQAPGKGLEWVSLIYSGGSTFYADSVKGRFTISRDNSKNTLYLLMNSLRVEDTAVYYCARDLRYYGMDVWGQGTTVTVSS
VL: QTVVTQEPSFSVFPGGTVTLTCGLSSGSVSTNNYPTWYQQTPGQPPRTLIYSTDTRSSGVPDRFFGSILGNKAALTITGTQADDESHYYCVLLVGSGANAKWVFGGGTKLTVL
B15: JN003 (antibody, V domains shown)
VH: EVQLVESGGGLVQPGGSLRLSCAASGFTFNSYWMTWIRQAPGKGLEWVANIAPDGSDTYYVDSVRGRFIISRDNAKNSLYLHMNSLRPEDTAVYYCANTPAAVGEYWGQGTLVTVSS
VL: QAVVTQEPSLSVSPGGTVTVTCGLSSGSVSTNNYPTWYQQTPGQPPRTLMYSTNTRSPGVLDRFSGSILGNKAALTITGAQADDESHYYCVLLVGSGANAKWVFGGGTKLTVL
B16: JN105 (antibody, V domains shown)
VH: QVQLVQSGAEVKKPGASVKVSCKASGYTFTSYGISWVRQAPGQGLEWMGWISAYNGNTNYAQKLQGRVTMTTDTSTSTAYMELRSLRSDDTAVYYCARDLQRAGPWADYDFWSGYYPPSNMDVWGQGTTVTVSS
VL: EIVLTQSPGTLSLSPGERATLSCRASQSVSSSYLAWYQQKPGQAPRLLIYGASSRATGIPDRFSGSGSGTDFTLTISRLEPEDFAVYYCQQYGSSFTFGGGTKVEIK

Columns and labels:
[1] = target: SARS-CoV-2 Wuhan-Hu-1 NTD (SARS-CoV-2, UniProt P0DTC2 14-307); test: cell-based or functional assay
[2] = target: T1, SARS-CoV-2 Wuhan-Hu-1 RBD (SARS-CoV-2, Wuhan-Hu-1 (GenBank …, UniProt P0DTC2)); test: BLI; conditions: both partners purified
[3] = target: T1, SARS-CoV-2 Wuhan-Hu-1 RBD; test: cell-based or functional assay

Binder	neutralisation IC50, WT (293TAce2) [1]	binding result [2]	neutralisation IC50, Wuhan-Hu-1 pseudovirus [3]
B1	> 1 µg/mL	–	–
B2	> 1 µg/mL	–	–
B3	> 1 µg/mL	–	–
B4	> 1 µg/mL	–	–
B5	> 1 µg/mL	–	–
B6	–	binds	> 1 µg/mL
B7	–	binds	> 1 µg/mL
B8	> 1 µg/mL	–	–
B9	> 1 µg/mL	–	–
B10	> 1 µg/mL	–	–
B11	> 1 µg/mL	–	–
B12	> 1 µg/mL	–	–
B13	> 1 µg/mL	–	–
B14	> 1 µg/mL	–	–
B15	> 1 µg/mL	–	–
B16	> 1 µg/mL	–	–
